# Test results: the DeepSol protein solubility set
# Test: soluble on expression in E. coli; label from the status in PepcDB or PDB records
row,Sequence,soluble on expression in E. coli
1,MRFLHTADWQLGMTRHFLNGEAQPRYSASRREAVASLGEIAKRTGAEFVVVSGDVFEHNQLAPRDVSQSLEAMRAIGVPVYLLPGNHDPLDASSVYTSALFVAERPDNVVVLDRAGVHEVRPGVQIVAAPWRSKAPTSDLIGDVLADLPADGVTRVLVGHGGVDILDPDKNKPSLIRMAAVEDALARGAVHYVALGDKHSRTEVGGSGRVWYSGSPEVTNYDDIESDPGHVLVVDIDENDARRAVRVESEKVGRWRFVTLRRSVDTDRDIADLDLNLDLLDDKERTVVRLALTGSLTVTDKAKLDECLDRYARLFAALTTWERLEHHHHHH,not soluble
2,SHSSSRASFTTRGDIRRQVEGFSASGERNKDTVVDLSTFFAERGYSNNQAPTKYWEEKLVTIGNVVVPKWVPVKERNSSNKQKEGEDEVFIGFEAIYYPEQPPERQPITLYQEENKVEEEEQSRE,soluble
3,MSLNTRQLLSVGIDIGTTTTQVIFSRLELVNRAAVSQVPRYEFIKREISWQSPVFFTPVDKQGGLKEAELKTLILEQYHAAGIEPESVDSGAIIITGESAKTRNARPAVMALSQSLGDFVVASAGPHLESVIAGHGAGAQTLSEQRLCRVLNIDIGGGTANYALFDAGKISGTACLNVGGRLLETDSHGRVVYAHKPGQMIVDECFGAGTDARSLTGAQLVQVTRRMAELIVEVIDGTLSPLAQALMQTGLLPAGVTPEIITLSGGVGECYRHQPADPFCFADIGPLLATALHDHPRLREMNVQFPAQTVRATVIGAGAHTLSLSGSTIWLEGVQLPLRNLPVAIPIDETDLVGAWQQALIQLDLDPKTDAYVLALPASLPVRYAAVLTVINALVDFVARFPNPHPLLVVAGQDFGKALGMLLRPQLQQLPLAVIDEVIVRAGDYIDIGTPLFGGSVVPVTVKSLAFPSEGHHHHHH,soluble
4,YIDILNQARDYVYIMTPYLILDSEMEHALQFAAERGVDVKIIMPGIPDKKVPFALAKRYFPALLDAGVKIYEFTPGFVHAKVFIADDIKAVVGTINLDYRSLYHHFECATYMYQTDCLVDIKADFKETLKQSRRVTRSTLQKEKISTKLIGLVVKLVAPLL,not soluble
5,MRRKSVLYLEVADQIKEDILSGKYPVGTFLPTETELEELFNVSKITIRRAIEMLATEEFVEKKSGRGTTVLSNRPYNKLSKAGTFTEFLNESGQKVTKKVLQVENLTLSKEMPAYQFLGEEVVHLSRLYLIDEQPYIYFNYYLPAAMKDVSLTEYKEESLYRLMDRHAIEIYKFEDRFEVATLTEAEQKMLQTTETTGLKRIRRSLSPTGRCVEYSEAIYNTKIHPYVIEYEA,not soluble
6,MKKVLIVFGTRPEAIKMAPLVQQLCQDNRFVAKVCVTGQHREMLDQVLELFSITPDFDLNIMEPGQTLNGVTSKILLGMQQVLSSEQPDVVLVHGDTATTFAASLAAYYQQIPVGHVEAGLRTGNIYSPWPEEGNRKLTAALTQYHFAPTDTSRANLLQENYNAENIFVTGNTVIDALLAVREKIHTDMDLQATLESQFPMLDASKKLILVTGHRRESFGGGFERICQALITTAEQHPECQILYPVHLNPNVREPVNKLLKGVSNIVLIEPQQYLPFVYLMDRAHIILTDSGGIQEEAPSLGKPVLVMRETTERPEAVAAGTVKLVGTNQQQICDALSLLLTDPQAYQAMSQAHNPYGDGKACQRIADILAK,not soluble
7,MGSDKIHHHHHHENLYFQGMKIKVALLDKDKEYLDRLTGVFNTKYADKLEVYSFTDEKNAIESVKEYRIDVLIAEEDFNIDKSEFKRNCGLAYFTGTPGIELIKDEIAICKYQRVDVIFKQILGVYSDMAANVATISGENDKSSVVIFTSPCGGVGTSTVAAACAIAHANMGKKVFYLNIEQCGTTDVFFQAEGNATMSDVIYSLKSRKANLLLKLESCIKQSQEGVSYFSSTKVALDILEISYADIDTLIGNIQGMDNYDEIIVDLPFSLEIEKLKLLSKAWRIIVVNDGSQLSNYKFMRAYESVVLLEQNDDINIIRNMNMIYNKFSNKNSEMLSNISIKTIGGAPRYEHATVRQIIEALTKMEFFEEILQ,soluble
8,MSLKIAIVGCGAMGSVYAGLLASAGNSLWIVDRWKAHVEAINSRGLRLEGPQRDLTAFAHASTTAPDEPMDLVIIAVKASDVETGAQQTLSMIGPETIVLTIQNGLGSADAVAQVVGVDRLAVGIASGFGASLKGPGHAHHNAMQALRFGAYSSLPYERVVAVARVWESAGFDAKAIRDIAVMQWEKLICNVAYSAPCALTGMTVGEVMNDPCMGPVSQAAATEAWSVARALGIQIDVDDPVAHVRAFGARMPAAKPSALLDHEAGRISEIDVINGAVPTQGNKLGIATPVNSTLTQLVRVKERQFREGHHHHHH,soluble
9,MGSDKIHHHHHHMEFTDLQIFIHLSDTKNFTKTATQNHMSPSTLSRQIQRLEDELGKTLFIRDNRQVKLTEYGEKFLQFAKTEWQNWQQFKQQLKDESDELCGEIKLFCSVTASYSHLPHVLKEFRQRYPKVEIQLTTGDPALALELIQAQQVDLALAGKPNNLPSSVVFHKIDDISLSLIAPRVACLATQLLQEKPIDWQQMPFIFPVEGHARQRIEQWLREKQIKHPKIYATVAGHEGIVPMVGLGFGLAMLPDAVIDSSPMNNQISRLNLDKPIEPFELGICTQKRNLEQPLVRAFWAMLE,not soluble
10,MGSDKIHHHHHHMPSIQELENFIIYGKVRNFTLAANQANITQSAFSFQMKKLEETLGVKLILRSNRGSSLTPEGEIFYKKISEILPELVGVIYEFQQINGEKAIELKVGVLTSLGDILMNQHVNYFQKNKNILITVYSMEKNELIRALNNGKIDIASTFLFDDETLENFEKSLFRKDKIVYYAPKIKEISGTIKRDNMLKVPLVKYPPDNFMNKMIDQYFNIERKMPTVAAKLPSPYAFIEYCKQDTAGAFITERLLNTLGFKYKQEYFNIDPPYEIKAFLLYKKENPKYSAIKIFTDYVVKLNQRDS,not soluble
11,DLVASGATLPEIQKRGYLTVAVKDNLRPLGFRDDKGNLQGLEIDLAKRLANDLLGKPDAVKFQPVANSDRLPVIVENKIDLAIANVTATESRSRIVSFSVPYYYDGAAIVTKDTSINQLEDLYRRKIAVLNNSSTIFYVKYFIPKSELIGVSSYAQAQEKIESNAVDAFAADNSLLSGWVQEYPKYHILPSQLSTEPLSVVMAKGLQYDEFRRSVNEAIARYIATGWLKESTQHWGLGNSQEKTLTTDR,not soluble
12,MTETIKVSESLELHAVAENHVKPLYQLICKNKTWLQQSLNWPQFVQSEEDTRKTVQGNVMLHQRGYAKMFMIFKEDELIGVISFNRIEPLNKTAEIGYWLDESHQGQGIISQALQALIHHYAQSGELRRFVIKCRVDNPQSNQVALRNGFILEGCLKQAEFLNDAYDDVNLYARIIDSQ,soluble
13,MGQIIVSMYLSLDGVMEEPAWTAPYFNEEVAKFQSDLLFESEALLLGRVTYQGFAAAWPSMTDEEGFADKMNSIPKFVASTTLEKTEWNANLIKGNIVEEISKLKEQPGQNLLIYGSGELIQTLMQHDLIDEYHFMVNPVIVGSGKHLFKTGNDTKALKLIETRTTSSGVVILSYQPEKKE,not soluble
14,MLDPARSYDLIGDVHGCALTLEHLLDRLGYHKQAGVWRHPSRMAVFLGDIIDRGPRIRESLHIVHDMVEAGQALCIMGNHEFNALGWSTPAAEGSGKQFVREHTPRHARLIHETLTQFEQHPGDWHDFLQWFYELPLFVDAGRFRVVHACWDAGLIAPLRQQYPNGCIDREFLQSAAVPDSFACTAFDRLLRGTDMRLPHGLTMTSGDGLTRAFFRTKFWEDDPQTYGDIVFQPDALPEPVARTPLSPAEKNSLLRYGAEEPMLFVGHYWRSGKPAPIRPNLACLDYSAVLYGKLAAYRLDQETRLDPNKFVWVDVERPEVVRLEHHHHHH,not soluble
15,MAMVPAKSLATTCVASKRMMWQIPEKWTMEEASTVPCVYSTVYYALVVRGQMKKGEKILIHAGSGGVGQAAISVALAHGLTVFTTVGSKEKREFLLKRFPKLQERNIGNSRDTSFEQLVLRETKGRGVDLVLNSLSEEKLQASIRCLGLNGRFLEIGKFDLSNNSPLGMSVFLKNTSFHGILLDSVMEGEEEMQNQVVSLVAEGIKTGAVVPLPTSVFNDQQVEQAFRFMASGKHIGKVVIK,soluble
16,MIKLERETKPDYLSDEKVFELTESFKATKKSVWNHDHIKIPLLRSSHSKCAYCECPLTSASNYMEVEHFEDKNHYPEKVVLWENLLPSCKKCNGAKGQHDVIGDPIINPYVEDPKNHLSMRLYRFRAKSDKGQSTIEVTQLNSSDRSVFCRYEIGEKISEMIDLGFERWNEYLVRNNTRSKNKLVNLVQGLLNECQPTSSYSASTATNLLTDPKFIELMSLMREADIVSEELDDLILKASTLVLDYVLEHHHHHH,not soluble
17,MGSDKIHHHHHHMDHIQAMRVFVRIVELGSFSRAAERLALPRATVSNTIKQLEGRLGVRLLQRTTRQVQITDEGRVYYERCLQLLAEIEEIDTLFTQQKLQPVGKVRVDMPHSLAREIVVPALGEFYARYPQVTLMLSANDAAINVLREGVDCVLRAWQTDDETLATRHLPSMPQVTCASADYLARYGVPRSLDELSGHHMVGYFSLRTEYLYPLEFMSGDERITRMLPGTLQVNGADAYIAGACAGLGIIQAPRRGLISLLDGGELVEILPEIPPPAMPLYVMYTPGRFLAPRIRVFIEWLDELFTRNAAVR,not soluble
18,MGSDKIHHHHHHMSIVGNVENLINGVGELWNKYVKHEFILKMRDGSLPLDIFRYYLIQDGKYVEDMLRALLIASSKGPIDKVTKILNLVFSSRDKGLETHGKLYSKLDISRDVIVKTGYNLINYAYTRHLYYYANLDWNKFLVAWTPCMFGYSIVGDYVIDSPNEVYKTWASFYASTEYKKRIEAILYALDEVSITEDLLNIFINSVRFEIGFWDASLRKDPTVY,not soluble
19,MGSDKIHHHHHHMKMNWTGAAHQLNKQGKAYVIATIVGVTGSTPRNSGTKMVITHDDIFDTIGGGHLEHKVIKHAHQLLMAGDDCQQLEHFQLGAQLGQCCGGNASVLFESFSASGVNIMLFGAGHVGKALMPILAGLPCSITWVDSRADQFPDDAGNYHNVTTLVSENPAEEVALMPTNSYYIVMTHNHQLDFEISHNTLKRADFAYLGLIASDTKWRRFQQRFQHRDIAKSLVEKMNCPIGLPQVQGKLPMEVAVSVAGEIIQLYQAELASQALANPSANKQKDAKPQSTKQGIAWQELKSLMTEEVS,not soluble
20,MPTITLRLELHNPTKVKQDMYERMTEVNTAFANWLLNHPELNQATSKIFKEFSPQRFPSAVVNQTIREVKSQKKNQKTKKFRTFWCCFNNQNVKVEKKGAFYTVSFPTLEKRIGVPVVTRPYQEAWLNRLLDGTAKQGAAKLYKKRTKWYLAIAITFEVKPRHETKVMGVDLGLRYIAVASVGTKSLFFKGSQCAFIRRRYAALRRTLGKAKKLQMIRKIGRKESRWMKDQNHKISRQIVNVALANGVGVIRMEALTGIRKRAKSAKEAGRSLHSWAFHQLQTMIAYKAEMAGIRVEWVKPTYTSQTCKCGHREKGNRNGIHFQCKQCGYTLHADLNGAINIAKAISGFVAEPSALVTGAPPIGVHRNPMGRGDDTPLNLGVVRTRNG,not soluble
